Test results taken from patent publication US20250114467A1 (SHANGHAI FUDAN ZHANGJIANG BIO PHARMACEUTICAL, published 2025).

Tests used:
[1] = target: T1, human DLL3, His tag (acrobiosystems, DL3-H52H4) (human, UniProt Q9NYJ7 27-492); assay: BLI (Octet 96e), antibody on sensor, DLL3-His 100-3.13 nM in solution
T1 construct: Bought; also called human DLL3 protein; free DLL3; not shown: His tag
T1 sequence (looked up): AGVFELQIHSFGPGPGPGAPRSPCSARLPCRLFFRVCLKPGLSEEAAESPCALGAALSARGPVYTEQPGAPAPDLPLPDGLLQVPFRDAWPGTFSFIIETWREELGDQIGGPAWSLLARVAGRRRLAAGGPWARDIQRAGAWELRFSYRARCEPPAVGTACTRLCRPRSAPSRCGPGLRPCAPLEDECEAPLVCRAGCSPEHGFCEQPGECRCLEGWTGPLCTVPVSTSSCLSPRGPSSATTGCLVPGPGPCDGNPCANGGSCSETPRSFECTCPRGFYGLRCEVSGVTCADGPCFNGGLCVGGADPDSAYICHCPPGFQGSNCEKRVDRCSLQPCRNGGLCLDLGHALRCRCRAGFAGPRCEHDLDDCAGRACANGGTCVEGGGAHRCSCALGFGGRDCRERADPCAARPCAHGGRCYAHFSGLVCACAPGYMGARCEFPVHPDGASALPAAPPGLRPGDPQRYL
Description: To assess the affinity of antibodies for human DLL3 protein, this study employed the BLI method to detect the binding kinetics curves of immobilized antibodies with free DLL3. The method was conducted according to the instrument's user manual (supplier: Fortebio, equipment model: Octet 96e). Briefly, AMC sensors were equilibrated for 60 s with Loading Buffer/Sample dilution buffer (1×PBS, pH7.4, with 0.1% BSA and 0.02% Tween-20) to obtain Baseline 1. The antibodies to be detected were diluted with Loading Buffer to a concentration of 10 ug/ml and bound to the equilibrated sensors, after which the sensors were re-equilibrated with Loading Buffer to obtain Baseline 2. The antibody-loaded sensors were then placed in human DLL3, His tag (supplier: acrobiosystems, catalog number: DL3-H52H4) diluted with Sample Dilution Buffer to concentrations ranging from 100 to 3.13 nM for 90 s to obtain the antibody-protein binding curve. Then, the sensors combined with antigen were placed in the Sample Dilution Buffer again and dissociated for 180 s, and the dissociation curve was obtained. The k-on and k-off values of the antibody-protein binding were calculated based on the binding and dissociation curves, and the KD values were calculated, with the results shown in Table 4.

[2] = target: T2, human DLL1 (purchased from Acro, DL1-H52H8) (human, UniProt O00548 18-540); assay: ELISA on plate-coated human DLL1 protein (1 µg/ml), HRP goat anti-human secondary, OD 450 nm [left panel]
T2 construct: Bought; also called hDLL1
T2 sequence (looked up): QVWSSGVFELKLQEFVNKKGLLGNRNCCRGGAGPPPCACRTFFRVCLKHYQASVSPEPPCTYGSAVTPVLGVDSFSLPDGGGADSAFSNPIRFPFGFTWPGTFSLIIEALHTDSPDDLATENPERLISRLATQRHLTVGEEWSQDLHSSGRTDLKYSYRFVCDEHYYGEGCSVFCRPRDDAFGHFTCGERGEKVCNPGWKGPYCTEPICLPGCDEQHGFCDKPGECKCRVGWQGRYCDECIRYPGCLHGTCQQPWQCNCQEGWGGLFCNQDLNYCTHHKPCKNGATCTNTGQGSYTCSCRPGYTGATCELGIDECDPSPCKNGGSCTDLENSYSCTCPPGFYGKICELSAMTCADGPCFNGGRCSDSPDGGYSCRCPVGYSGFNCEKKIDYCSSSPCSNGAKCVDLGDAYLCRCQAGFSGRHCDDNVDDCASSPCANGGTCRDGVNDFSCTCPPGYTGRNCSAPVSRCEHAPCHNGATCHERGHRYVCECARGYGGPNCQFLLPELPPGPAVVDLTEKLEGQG
Description: (§1) The chimeric antibodies obtained in Example 6 were evaluated for their binding abilities to human DLL1 (purchased from Acro, DL1-H52H8) and DLL4 (purchased from Acro, DL4-H5227) proteins using the ELISA method. The ELISA detection method involved diluting DLL1 and DLL4 proteins with PBS to a final concentration of 1 μg/ml and coating them onto 384-well ELISA plates (purchased from Corning, 3700) at 4° C. overnight. The next day, the supernatant in the plate wells was discarded, and the wells were blocked with 80 μl of 3% milk (dissolved in PBS) for 2 hours, followed by washing three times with 80 μl of PBST (0.1% Tween20). […] After washing with 80 μl of PBST (0.1% Tween20) for five times, 25 μl of HRP-labeled goat anti-human secondary antibody (Jackson, 1:10000) was added to each well and incubated at room temperature for 1 hour, discard the supernatant, and the wells were then washed seven times with 80 μl of PBST (0.1% Tween20). After adding 25 μl of TMB chromogen solution for 10 minutes, the reaction was terminated with 2M HCl, and the absorbance value at 450 nm was measured with a Microplate reader (purchased from Biotek, Elx808). […] To assess the cross-reactivity of the antibodies with mouse and monkey DLL3, mouse DLL3-expressing plasmid pCMV3-mDLL3 (purchased from Beijing Yiqiao, MG58052-UT) and monkey DLL3-expressing plasmid pCMV3-rheDLL3 (purchased from Beijing Yiqiao, CG90919-UT) were used to construct overexpressing cell lines. The construction of overexpressing cells was as described in Examples 2-3. The binding abilities of the chimeric antibodies to these cells were determined by flow cytometry to assess the cross-reactivity of the antibodies with different species.

[3] = target: T3, human DLL4 (purchased from Acro, DL4-H5227) (human, UniProt Q9NR61 27-524); assay: ELISA on plate-coated human DLL4 protein (1 µg/ml), HRP goat anti-human secondary, OD 450 nm [right panel]
T3 construct: Bought; also called hDLL4
Description: as §1

T3 sequence (Q9NR61 27-524 limits assumed): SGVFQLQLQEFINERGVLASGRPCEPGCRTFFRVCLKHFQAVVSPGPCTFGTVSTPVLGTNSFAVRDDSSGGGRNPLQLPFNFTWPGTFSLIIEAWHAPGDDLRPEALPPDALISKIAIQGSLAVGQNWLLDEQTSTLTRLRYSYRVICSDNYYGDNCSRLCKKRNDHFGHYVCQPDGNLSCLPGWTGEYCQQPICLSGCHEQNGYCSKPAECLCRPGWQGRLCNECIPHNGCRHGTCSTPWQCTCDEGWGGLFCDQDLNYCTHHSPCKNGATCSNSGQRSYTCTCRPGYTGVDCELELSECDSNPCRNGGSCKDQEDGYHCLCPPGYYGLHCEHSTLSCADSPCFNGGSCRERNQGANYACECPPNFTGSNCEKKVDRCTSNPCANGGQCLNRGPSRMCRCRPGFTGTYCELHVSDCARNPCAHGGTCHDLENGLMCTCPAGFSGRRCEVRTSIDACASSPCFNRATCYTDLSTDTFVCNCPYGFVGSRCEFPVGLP

B1: ch32E8 (antibody, human IgG1, kappa, V domains shown)
VH: QVTLKESGPGILQPSQTLSLTCSFSGFSLSTSGMGVGWIRQPSGKGLEWLALIWWDDVKRYHPALKSRLTISKDTSSSQVFLKIASVDTADTATYYCARIAEVTGQVGLHYAMDYWGQGTSVTVSS
VL: QTVLTQSPAIMSASLGERVTMTCTASSSVNSSSLHWYQQKPGSSPKLWIYTTSNLASGVPARFSGSGSGTSYSLTISSMEAEDAATYYCHQFHRSPFTFGSGTKLEIKR
notes: Chimeric: murine variable regions on human IgG1 heavy and kappa light constant regions; also called chimeric antibody 32E8
Kd [1]: 0.09 nM | koff [1]: 0.000134 s⁻¹ | kon [1]: 1.49e+06 M⁻¹ s⁻¹ | binding result [2]: no binding (tested: 20 µg/ml) | binding result [3]: no binding (tested: 20 µg/ml)

B2: ch19C7 (antibody, human IgG1, kappa, V domains shown)
VH: EVQLQQSGPELVRPGASVRMSCKASGYTFTYYVMHWVKQKPGLGLEWIGYINPYNDGTEYNEKFKGKATLTSDKSSSTAFMELSSLTSEDSAVYYCARWLLREYAMDYWGQGTSVTVSS
VL: DIQMTQSPASLSASVGETVTITCRASDNIHNYLAWYQQKQGKSPQLLVYNAKTLADGVPSRFSGSGSGTQYSLKINSLQPEDFGSYYCQHFWSTPWTFGGGTKLEIKR
notes: Chimeric: murine variable regions on human IgG1 heavy and kappa light constant regions; also called chimeric antibody 19C7
Kd [1]: 0.739 nM | koff [1]: 0.000962 s⁻¹ | kon [1]: 1.3e+06 M⁻¹ s⁻¹ | binding result [2]: no binding (tested: 20 µg/ml) | binding result [3]: no binding (tested: 20 µg/ml)

B3: ch26D9 (antibody, human IgG1, kappa, V domains shown)
VH: EVQLQQSGPELVKPGASVKMSCKASGYTFTTYVMHWVKQKPGQGLEWIGYINPYNDDTNYNEKFKGKATLTSDKSSSTAYMELSSLTSEDSAVYYCARWGLTGTGDYYAMDYWGQGTSVTVSS
VL: DIQMTQSPASLSASVGETVTITCRASGNVHNYLAWYQQKQGRSPQVLVYNAKTLADGVPSRFSGSGSGTQYSLKINSLLPEDFGSYYCQHFWTTPWTFGGGTTLEIKR
notes: Chimeric: murine variable regions on human IgG1 heavy and kappa light constant regions; also called chimeric antibody 26D9
Kd [1]: 0.0381 nM | koff [1]: 6.58e-05 s⁻¹ | kon [1]: 1.73e+06 M⁻¹ s⁻¹ | binding result [2]: no binding (tested: 20 µg/ml) | binding result [3]: no binding (tested: 20 µg/ml)

B4: ch10B1 (antibody, human IgG1, kappa, V domains shown)
VH: DVKLVESGGGLVKPGGSLKLSCAASGFTFSNYTISWVRQTPEKRLEWVATFSSGGSYTYYSDSVKGRFTISRDNAKNTLYLQMSSLKSEDTAMYYCSRDRRSDGYYHLYAMDYWGQGTSVTVSS
VL: DIQMTQTTSSLSASLGDRVTISCRASQDISHYLNWYQQKPDGTVKLLIYYTSRLHSGVPSRFSGSGSGTAYSLTISNLEQEDIATYFCQQGYTLPLTFGAGTKLELKR
notes: Chimeric: murine variable regions on human IgG1 heavy and kappa light constant regions; also called chimeric antibody 10B1
Kd [1]: 0.204 nM | koff [1]: 0.000279 s⁻¹ | kon [1]: 1.37e+06 M⁻¹ s⁻¹ | binding result [2]: no binding (tested: 20 µg/ml)

B5: ch23G2 (antibody, human IgG1, kappa, V domains shown)
VH: QVQLQQSGPELVRPGVSVKISCKGSGYTFTDYAIHWVKQSRAKSPEWIGIVSTDSGKTSFNQKFKGKATMTVDKSSTTAYMELVRLTSEDSAIYYCARNPYYDYDGYAMDYWGQGTSVTVSS
VL: DIQMTQSSSYLSVSLGGRVTIICKASDHINNWLAWYQQKPGNAPRLIISGATSLETGVPSRFSGSGSGKDYTLSITSLQTEDVATYYCQQYWSIPYTFGGGTKLEIKR
notes: Chimeric: murine variable regions on human IgG1 heavy and kappa light constant regions; also called chimeric antibody 23G2
Kd [1]: 0.0158 nM | koff [1]: 2.79e-05 s⁻¹ | kon [1]: 1.76e+06 M⁻¹ s⁻¹ | binding result [2]: no binding (tested: 20 µg/ml)

B6: ch33F11 (antibody, human IgG1, kappa, V domains shown)
VH: EVQLQQSGPELVKPGASVKISCKTSGYTFTENTMHWVKQSHGESLEWIGGINPRNGVTSYNQKFKGKATLTVDKSSSTAYMELRSLTSEDSAVYYCTNTYYRDYFDYWGQGTTLTVSS
VL: NIVMTQSPKSMSMSVGERVTLSCKASENVGTYVSWYQQKPDQSPKLLIYGASNRYTGVPDRFTGSGSPTDFTLTISRMQAEDLAHYYCGQTYTYPLTFGAGTKLELKR
notes: Chimeric: murine variable regions on human IgG1 heavy and kappa light constant regions; also called chimeric antibody 33F11
Kd [1]: 0.0521 nM | koff [1]: 6.31e-05 s⁻¹ | kon [1]: 1.21e+06 M⁻¹ s⁻¹ | binding result [2]: no binding (tested: 20 µg/ml) | binding result [3]: no binding (tested: 20 µg/ml)

B7: ch1A5 (antibody, human IgG1, kappa, V domains shown)
VH: EVQLQQSGPELVKPGASVKISCKTSGYTFTESAMHWVKQSHGKSLEWIGGINPNNGGISYSQKFKGKATLTVDKSSSTAYMELRSLTSEDSAVYYCGSSYYRDYFDYWGQGTTLTVSS
VL: NIVMTQSPESMSMSVGERVTLSCKASENVGTYVSWYQQKPDQSPKLLIYGASNRYTGVPDRFTGSGSATHFTLTISSVQAEDLADYHCGQSYSYPLTFGAGTKLELKR
notes: Chimeric: murine variable regions on human IgG1 heavy and kappa light constant regions, expressed in 293F cells; also called chimeric antibody 1A5
Kd [1]: 0.0597 nM | koff [1]: 7.4e-05 s⁻¹ | kon [1]: 1.24e+06 M⁻¹ s⁻¹ | binding result [2]: no binding (tested: 20 µg/ml) | binding result [3]: no binding (tested: 20 µg/ml)

B8: ch6A2 (antibody, human IgG1, kappa, V domains shown)
VH: EVQLQQSGPELVKPGASVKISCKASGYTFTDYNMNWVKQSQGKSLEWIGYIYPYNGGTGYNQKFKTKATLTVDNSSSTAYMEFRSLTSEDSAVYYCARSDPYYTMDYWGQGTSVTVSS
VL: IIVMTQTPKFLLVSAGDRVTISCKASQSVNNDVAWYQQKPGQSPKLLIYFTSNRFTGVPDRFTGSGYGTDFTFTISSVQAEDLAVYFCQQDHNSPYTFGGGTKLEIKR
notes: Chimeric: murine variable regions on human IgG1 heavy and kappa light constant regions; also called chimeric antibody 6A2
Kd [1]: 0.466 nM | koff [1]: 0.000684 s⁻¹ | kon [1]: 1.47e+06 M⁻¹ s⁻¹ | binding result [2]: no binding (tested: 20 µg/ml) | binding result [3]: binds

B9: ch13C2 (antibody, human IgG1, kappa, V domains shown)
VH: EVKLVESGGGLVKPGGSLKLSCAASGFAFSSYDMSWVRQTPEKRLEWVATISSGGSYTYYPDSVKGRFTISRDNGRNTLYLQMSSLRSEDTALYYCASPLLGLRFAYWGQGTLVTVSA
VL: QAVVTQESALTTSPGETVTLTCRSSTGAVTTINYANWVQEKPDHLFTGLIGGTNNRAPGVPARFSGSLIGDKAALTITGAQTEDEAIYFCALYYSNHWVFGGGTKLTVLR
notes: Chimeric: murine variable regions on human IgG1 heavy and kappa light constant regions; also called chimeric antibody 13C2
Kd [1]: 5.37 nM | koff [1]: 0.0012 s⁻¹ | kon [1]: 223000 M⁻¹ s⁻¹ | binding result [2]: no binding (tested: 20 µg/ml) | binding result [3]: no binding (tested: 20 µg/ml)

B10: ch15G2 (antibody, human IgG1, kappa, V domains shown)
VH: EVQLQQSGPELEKPGASVRISCKASGYSFTDYNMHWVKQSNGKSLEWIGNIDPYYGGTNYNQKFEGKATLTVDKSSSTAYMQLKSLTSEDSAVYYCARGGNNYGDYWGQGTTLTVSS
VL: DIQMTQSPASLAASVGETVTITCRASENIYYSLAWYQQKQGKSPQLLIFNANSLEDGVPSRFSGSGSGTQYSMKINSMQPEDTATYFCKQAYDVPWTFGGGTKLEIKR
notes: Chimeric: murine variable regions on human IgG1 heavy and kappa light constant regions; also called chimeric antibody 15G2
Kd [1]: 0.0702 nM | koff [1]: 0.000121 s⁻¹ | kon [1]: 1.72e+06 M⁻¹ s⁻¹ | binding result [2]: no binding (tested: 20 µg/ml) | binding result [3]: no binding (tested: 20 µg/ml)
